Laboratory results: paper PMC10763564 (2023)
Starred links: 1 amine or outer side, 2 acyl side, 3 side chain; linkers in the order of their positions; H or OH if unused. Positions of bridges follow the written chain, without caps; N, C: chain ends. No end group written: not given here. TBMB = c1c(C[*:1])cc(C[*:3])cc1C[*:2]

Molecular target: extracellular domain of Transferrin Receptor 1 (UniProt P02786 89-760)
Experiment: BLI

extracellular domain of Transferrin Receptor 1, sequence (P02786 89-760): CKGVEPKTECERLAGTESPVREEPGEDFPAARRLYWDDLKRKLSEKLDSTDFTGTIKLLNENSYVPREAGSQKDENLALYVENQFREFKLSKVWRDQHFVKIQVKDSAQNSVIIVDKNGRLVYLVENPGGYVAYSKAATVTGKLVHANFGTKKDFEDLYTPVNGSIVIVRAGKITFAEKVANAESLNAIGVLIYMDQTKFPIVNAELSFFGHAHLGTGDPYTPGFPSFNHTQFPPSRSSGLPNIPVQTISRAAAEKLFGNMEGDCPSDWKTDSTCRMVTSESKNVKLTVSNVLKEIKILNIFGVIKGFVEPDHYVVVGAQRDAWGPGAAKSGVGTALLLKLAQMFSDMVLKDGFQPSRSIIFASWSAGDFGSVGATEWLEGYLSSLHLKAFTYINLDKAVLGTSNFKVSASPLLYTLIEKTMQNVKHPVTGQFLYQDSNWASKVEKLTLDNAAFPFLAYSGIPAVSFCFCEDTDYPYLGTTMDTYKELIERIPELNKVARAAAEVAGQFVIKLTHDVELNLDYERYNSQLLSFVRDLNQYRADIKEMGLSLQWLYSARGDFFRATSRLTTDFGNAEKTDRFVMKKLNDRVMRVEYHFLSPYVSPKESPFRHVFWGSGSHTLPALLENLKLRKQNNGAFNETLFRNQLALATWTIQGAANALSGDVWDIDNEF

Kd: 25 µM
B1: BrainBike-4 as used in biolayer interferometry (peptide)
chain: CVHWDCRQWC
modifications: linker 1-6-10 via TBMB
